In assay [1] the target is protein disulfide isomerase (PDI), wild type (human) (UniProt P07237). Description: high-speed atomic force microscopy.
For assay [2], the target named is HSA 82-aa RNC with Cys34, Cys53, and Cys62 mutated to Ala (human). Description: high-speed atomic force microscopy.

Sequence of protein disulfide isomerase (PDI), wild type (P07237 18-508): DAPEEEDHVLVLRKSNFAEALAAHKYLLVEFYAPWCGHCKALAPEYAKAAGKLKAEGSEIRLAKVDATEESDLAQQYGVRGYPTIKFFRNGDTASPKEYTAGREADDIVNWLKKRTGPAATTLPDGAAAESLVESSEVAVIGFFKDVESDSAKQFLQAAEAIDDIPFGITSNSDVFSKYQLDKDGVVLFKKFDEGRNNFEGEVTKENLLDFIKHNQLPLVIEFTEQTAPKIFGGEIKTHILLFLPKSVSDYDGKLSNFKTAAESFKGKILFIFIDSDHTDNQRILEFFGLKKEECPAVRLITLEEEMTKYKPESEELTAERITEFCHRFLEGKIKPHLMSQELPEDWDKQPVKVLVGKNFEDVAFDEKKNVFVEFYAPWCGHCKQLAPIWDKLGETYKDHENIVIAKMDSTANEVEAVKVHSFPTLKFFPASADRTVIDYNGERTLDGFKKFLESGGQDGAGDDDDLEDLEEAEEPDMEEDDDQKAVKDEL
Sequence of protein disulfide isomerase (PDI), wild type, P07237 18-508 (enzyme; other documents disagree on this pair) (P07237 18-508): as above

In turn, “protein disulfide isomerase (PDI), wild type, P07237 18-508 (enzyme; other documents disagree on this pair)” displayed a stoichiometry N in assay [1] of 2.

As for “ER-resident protein 46 (ERp46), wild type (from UniProt Q8NBS9 33-432) (enzyme)”, the RNC binding time (8/59 molecules) in assay [2] stood at 60 s.

Turning to “protein disulfide isomerase (PDI), wild type (from UniProt P07237 18-508) (enzyme)”, in assay [2], the RNC binding time (PDI homodimer, 17/19 molecules) was > 60 s and the RNC binding time (PDI monomer, 52/55 molecules) is < 10 s.

The values are drawn from publication doi:10.1101/2021.01.04.425348.
